The values below come from patent publication US20260218282A1.

The target in the test is pMHC monomer containing HLA-A*02:01 restricted NY-ESO-1 C9V peptide (human). Description: capture of TCR-transduced PBMCs on pMHC-labeled nanovials (20 µg/ml pMHC), flow cytometry. A general note: Flow cytometry measures light scatter and fluorescence of single cells or particles in a stream.

The substance 1G4 TCR gave a fraction of bound live cells with NGFR expression of 93.9%.
